Source: paper doi:10.1101/2025.03.12.642685
Where “and” joins values, the source holds several entries; their conditions need not be identical. Identical values can stand only once.

What was measured:
[1] = target: PorK (P. gingivalis (endogenous in P. gingivalis W50 EK18)); experiment: cryo-EM structure
[2] = target: PorN (P. gingivalis (endogenous in P. gingivalis W50 EK18)); experiment: cryo-EM structure

With PorK (natural protein) the stoichiometry N [1] was 31 to 35 (2×) and 33.
PorN (natural protein) was tested, and the stoichiometry N [2] was 31 to 35 (2×) and 33.
